From IntAct's records for PubMed 24413684 come the findings set out here.

To fix the notation:
B1: Programmed cell death protein 4 (Homo sapiens), Q53EL6 (parent)
chain: MDVENEQILNVNPADPDNLSDSLFSGDEENAGTEEIKNEINGNWISASSINEARINAKAKRRLRKNSSRDSGRGDSVSDSGSDALRSGLTVPTSPKGRLLDRRSRSGKGRGLPKKGGAGGKGVWGTPGQVYDVEEVDVKDPNYDDDQENCVYETVVLPLDERAFEKTLTPIIQEYFEHGDTNEVAEMLRDLNLGEMKSGVPVLAVSLALEGKASHREMTSKLLSDLCGTVMSTTDVEKSFDKLLKDLPELALDTPRAPQLVGQFIARAVGDGILCNTYIDSYKGTVDCVQARAALDKATVLLSMSKGGKRKDSVWGSGGGQQSVNHLVKEIDMLLKEYLLSGDISEAEHCLKELEVPHFHHELVYEAIIMVLESTGESTFKMILDLLKSLWKSSTITVDQMKRGYERIYNEIPDINLDVPHSYSVLERFVEECFQAGIISKQLRDLCPSRGRKRFVSEGDGGRLKPESY

In this experiment the parent is B1. As to conditions: with if4a1_human EIF4A1, P60842.
if4a1_human EIF4A1, P60842, sequence (P60842 whole entry): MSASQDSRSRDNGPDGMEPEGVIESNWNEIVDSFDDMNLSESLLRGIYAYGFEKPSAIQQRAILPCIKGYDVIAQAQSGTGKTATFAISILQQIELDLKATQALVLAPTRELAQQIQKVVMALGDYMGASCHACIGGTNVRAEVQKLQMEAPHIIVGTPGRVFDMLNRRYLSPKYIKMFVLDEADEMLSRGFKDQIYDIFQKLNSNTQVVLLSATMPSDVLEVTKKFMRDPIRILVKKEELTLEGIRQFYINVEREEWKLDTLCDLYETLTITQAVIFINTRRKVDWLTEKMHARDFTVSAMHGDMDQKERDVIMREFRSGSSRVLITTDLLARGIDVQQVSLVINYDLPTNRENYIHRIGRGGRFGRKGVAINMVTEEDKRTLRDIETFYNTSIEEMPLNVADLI
For D418A, the “effect of a mutation on the interaction” value was “decreasing interaction”. In the case of D253A;D418A it was “decreasing interaction”.
